According to patent US20160235855A1, “STABLE AQUEOUS PARENTERAL PHARMACEUTICAL COMPOSITIONS OF INSULINOTROPIC PEPTIDES” (SHANGHAI BENEMAE PHARMACEUTICAL CORPORATION, priority 2013, published 2016):

Assays:
Type in all cases: physicochemical
[1] = HPLC analysis of GLP-1 on C18 column (chemical stability); conditions: for Results of HPLC analysis, retention of the peptide content: pH 7.5, NaCl 29.22 mg/mL, 8 days
Protocol: An investigation method for chemical stability: a test sample was taken, and analyzed on a C18 column (3.5 μm, 300 Å, φ 4.6×50 mm). An analytical method: mobile phase A was 0.1% trifluoroacetic acid, B was the A phase with 80% acetonitrile added therein, the detection wavelength was 280 nm, 60% A and 40% B were balanced for 3 min, and the sample amount was 2 to 5 μL. Elution was performed with linear gradient for 8 min with 40% to 53% of the B phase and 60% to 47% of the A phase. Peak area was calculated using the normalization method. A standard sample was determined with the same method. The peptide concentration in the sample was calculated by comparison with the standard sample, and compared with the determination result at day 0, to calculate the retention of the peptide content in the sample. A higher retention of the peptide content indicated better chemical stability.
The HPLC detection method was performed according to Example 1.
The formulation method and HPLC detection method of the pharmaceutical compositions were performed according to Example 5.

[2] = Thioflavine T fluorescence value (gelatination, physical stability); conditions: 35 days
Protocol: A monitoring method for physical stability of the pH value was the fluorescence value, that is, thioflavine T was added into the sample at a final concentration of 5 μmol/L, then the fluorescence absorption value was determined (at an excitation wavelength of 435 nm, and an emission wavelength of 485 nm). The higher the absorption value is, the severer the gelatination phenomena of the sample is, and the poorer the physical stability is.

[3] = Absorption values at 360 nm (physical stability); conditions: for Absorption values at 360 nm: 8 days
Excerpt: If there was evident precipitation or turbidity, no further determination would be carried out. If the samples had no abnormal phenomena observable with the naked eye, the samples were taken and subjected to determination of absorption values at 360 nm and HPLC detection, wherein the former investigated the physical stability, and the latter investigated the chemical stability.
Absorption values determined at a wavelength of 360 nm were compared, so as to compare differences in physical stability among the samples. A higher absorption value indicated poorer physical stability.

**Q.** Which “Results of HPLC analysis, retention of the peptide content” value ([1]; 35° C.) does the source give for Glucagon-like peptide 1 [GLP-1] here?
**A.** 93.74%

**Q.** What about the “Results of HPLC analysis, retention of the peptide content” value ([1]; 45° C.) of the same substance?
**A.** 88.04%

**Q.** What about the chemical instability ([1]; pH value lower than about 3.5) of the same substance?
**A.** acid hydrolysis

**Q.** What about the Fluorescence value ([2]; pH 3.6, NaCl below 20 mmol/L, 35° C.) of the same substance?
**A.** 9.95

**Q.** What about the Fluorescence value ([2]; pH 3.7, NaCl below 20 mmol/L, 25° C.) of the same substance?
**A.** 9.11

**Q.** What about the Fluorescence value ([2]; pH 3.7, NaCl below 20 mmol/L, 35° C.) of the same substance?
**A.** 14.55

**Q.** And the Fluorescence value ([2]; pH 3.8, NaCl below 20 mmol/L, 25° C.)?
**A.** 11.01

**Q.** And the Fluorescence value ([2]; pH 3.8, NaCl below 20 mmol/L, 35° C.)?
**A.** 31.58

**Q.** What about the Fluorescence value ([2]; pH 3.9, NaCl below 20 mmol/L, 25° C.) of the same substance?
**A.** 26.46

**Q.** What about the Fluorescence value ([2]; pH 3.9, NaCl below 20 mmol/L, 35° C.) of the same substance?
**A.** 78.27

**Q.** And the Fluorescence value ([2]; pH 4.0, NaCl below 20 mmol/L, 25° C.)?
**A.** 59.32

**Q.** And the Fluorescence value ([2]; pH 4.0, NaCl below 20 mmol/L, 35° C.)?
**A.** 113.18

**Q.** What about the Fluorescence value ([2]; pH 4.1, NaCl below 20 mmol/L, 25° C.) of the same substance?
**A.** 139.48

**Q.** What about the Fluorescence value ([2]; pH 4.1, NaCl below 20 mmol/L, 35° C.) of the same substance?
**A.** 157.00

**Q.** What about the “Absorption values at 360 nm” value ([3]; pH 3.0, NaCl 0 mg/mL, 35° C.) of the same substance?
**A.** 0.0706

**Q.** What about the “Absorption values at 360 nm” value ([3]; pH 3.0, NaCl 0 mg/mL, 45° C.) of the same substance?
**A.** 0.0844

**Q.** What about the “Absorption values at 360 nm” value ([3]; pH 3.0, NaCl 1.17 mg/mL, 35° C.) of the same substance?
**A.** 0.0716

**Q.** And the “Absorption values at 360 nm” value ([3]; pH 3.0, NaCl 1.17 mg/mL, 45° C.)?
**A.** 0.0724

**Q.** What about the “Absorption values at 360 nm” value ([3]; pH 3.0, NaCl 8.77 mg/mL, 45° C.) of the same substance?
**A.** 0.1812

**Q.** What about the “Absorption values at 360 nm” value ([3]; pH 3.0, NaCl 29.22 mg/mL, 35° C.) of the same substance?
**A.** 0.2052

**Q.** And the “Absorption values at 360 nm” value ([3]; pH 3.0, NaCl 29.22 mg/mL, 45° C.)?
**A.** 0.2417

**Q.** And the “Absorption values at 360 nm” value ([3]; pH 3.5, NaCl 0 mg/mL, 35° C.)?
**A.** 0.0684

**Q.** What about the “Absorption values at 360 nm” value ([3]; pH 3.5, NaCl 0 mg/mL, 45° C.) of the same substance?
**A.** 0.0689

**Q.** What about the “Absorption values at 360 nm” value ([3]; pH 3.5, NaCl 1.17 mg/mL, 35° C.) of the same substance?
**A.** 0.0694

**Q.** What about the “Absorption values at 360 nm” value ([3]; pH 3.5, NaCl 1.17 mg/mL, 45° C.) of the same substance?
**A.** 0.0823

**Q.** What about the “Absorption values at 360 nm” value ([3]; pH 3.5, NaCl 8.77 mg/mL, 35° C.) of the same substance?
**A.** 0.1882

**Q.** And the “Absorption values at 360 nm” value ([3]; pH 3.5, NaCl 8.77 mg/mL, 45° C.)?
**A.** 0.1780

**Q.** And the “Absorption values at 360 nm” value ([3]; pH 4.0, NaCl 0 mg/mL, 35° C.)?
**A.** 0.0686

**Q.** What about the “Absorption values at 360 nm” value ([3]; pH 4.0, NaCl 0 mg/mL, 45° C.) of the same substance?
**A.** 0.0843

**Q.** And the “Absorption values at 360 nm” value ([3]; pH 4.0, NaCl 1.17 mg/mL, 35° C.)?
**A.** 0.1354

**Q.** What about the “Absorption values at 360 nm” value ([3]; pH 4.0, NaCl 1.17 mg/mL, 45° C.) of the same substance?
**A.** 0.1448

**Q.** And the “Absorption values at 360 nm” value ([3]; pH 4.0, NaCl 8.77 mg/mL, 35° C.)?
**A.** 0.1907

**Q.** What about the “Absorption values at 360 nm” value ([3]; pH 4.0, NaCl 8.77 mg/mL, 45° C.) of the same substance?
**A.** 0.1974

**Q.** What about the “Absorption values at 360 nm” value ([3]; pH 4.5, NaCl 0 mg/mL, 35° C.) of the same substance?
**A.** 0.1326

**Q.** And the “Absorption values at 360 nm” value ([3]; pH 4.5, NaCl 0 mg/mL, 45° C.)?
**A.** 0.1370

**Q.** And the “Absorption values at 360 nm” value ([3]; pH 4.5, NaCl 1.17 mg/mL, 35° C.)?
**A.** 0.1655

**Q.** And the “Absorption values at 360 nm” value ([3]; pH 4.5, NaCl 1.17 mg/mL, 45° C.)?
**A.** 0.1814

**Q.** What about the “Absorption values at 360 nm” value ([3]; pH 7.0, NaCl 0 mg/mL, 35° C.) of the same substance?
**A.** 0.0813

**Q.** And the “Absorption values at 360 nm” value ([3]; pH 7.0, NaCl 0 mg/mL, 45° C.)?
**A.** 0.0828

**Q.** And the “Absorption values at 360 nm” value ([3]; pH 7.0, NaCl 1.17 mg/mL, 35° C.)?
**A.** 0.0864

**Q.** And the “Absorption values at 360 nm” value ([3]; pH 7.0, NaCl 1.17 mg/mL, 45° C.)?
**A.** 0.0865

**Q.** What about the “Absorption values at 360 nm” value ([3]; pH 7.0, NaCl 8.77 mg/mL, 35° C.) of the same substance?
**A.** 0.0824

**Q.** And the “Absorption values at 360 nm” value ([3]; pH 7.0, NaCl 8.77 mg/mL, 45° C.)?
**A.** 0.0841

**Q.** What about the “Absorption values at 360 nm” value ([3]; pH 7.0, NaCl 29.22 mg/mL, 35° C.) of the same substance?
**A.** 0.0850

**Q.** And the “Absorption values at 360 nm” value ([3]; pH 7.0, NaCl 29.22 mg/mL, 45° C.)?
**A.** 0.0862

**Q.** What about the physical stability ([3]; pH 7.0 and 7.5) of the same substance?
**A.** normal

**Q.** What about the “Absorption values at 360 nm” value ([3]; pH 7.5, NaCl 0 mg/mL, 35° C.) of the same substance?
**A.** 0.0807

**Q.** What about the “Absorption values at 360 nm” value ([3]; pH 7.5, NaCl 0 mg/mL, 45° C.) of the same substance?
**A.** 0.0859

**Q.** What about the “Absorption values at 360 nm” value ([3]; pH 7.5, NaCl 1.17 mg/mL, 35° C.) of the same substance?
**A.** 0.0799

**Q.** And the “Absorption values at 360 nm” value ([3]; pH 7.5, NaCl 1.17 mg/mL, 45° C.)?
**A.** 0.0937

**Q.** What about the “Absorption values at 360 nm” value ([3]; pH 7.5, NaCl 8.77 mg/mL, 35° C.) of the same substance?
**A.** 0.0846

**Q.** What about the “Absorption values at 360 nm” value ([3]; pH 7.5, NaCl 8.77 mg/mL, 45° C.) of the same substance?
**A.** 0.0902

**Q.** And the “Absorption values at 360 nm” value ([3]; pH 7.5, NaCl 29.22 mg/mL, 35° C.)?
**A.** 0.0861

**Q.** And the “Absorption values at 360 nm” value ([3]; pH 7.5, NaCl 29.22 mg/mL, 45° C.)?
**A.** 0.0942
